Experimental findings from the nanobody polyreactivity screen of Harvey et al. (2022) are described below.

The data set is described as follows: yeast display, Sf9 membrane polyspecificity reagent, FACS + sequencing; frameworks hold sequencing errors. The method, boiled down:
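A synthetic nanobody library was expressed on Saccharomyces cerevisiae BJ5465 by galactose induction for 36–48 hours. The library was stained for 1 hour at 4 °C with 10% biotinylated, detergent-solubilized Sf9 membrane reagent and enriched with streptavidin microbeads before FACS. Low and high (top ~1%) gates were set on anti-HA fluorescence for expression and streptavidin fluorescence for reagent binding, and each polyreactivity label reflects the gate of origin.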
Take “QVQLVESGGGLVQAGGSLRLSCAASGSIFSGNAMGWYRQAPGKERELVAAITSSGGSTYYADSVKGRFTISRDNAKNTVYLQMNSLKPEDTAVYYCAKDYYSKHFPIYDYWGQGTQVTVSS”: the “polyreactivity (PSR sort gate)” value is “low polyreactivity”.

Regarding “QVQLVESGGGLVQAGGSLRLTCAASGRTFYVYAMGWYRQAPGKERELVAAITRSGDSTYADSVKGRFTISRDNAKNTVYLQMNSLKPEDTAVYYCSKRYTHYSFRRFDYWGQGTQVTVSS”, the “polyreactivity (PSR sort gate)” value is “low polyreactivity”.

Regarding “QVQLVESGGGLVQAGGSLRLSCASSGFAYSYYAMGWYRQAPGKEREFVASIDWSGGSTYYADSVKGRITISRDNAMNTVYLQMNSLKPEATAVYYCAAELDYFPGYDSWGQGTQVTVSS”, the “polyreactivity (PSR sort gate)” value is “low polyreactivity”.

As to “QVQLVESGGGLVQAGGSLRLSCAASGRTFGVNTMGWYRQAPGKERELVASISTSGGSTYADSVKGRFTISRDNAKNTVYLQMISLKPEDTAVYYCARTYYWYLRVDYWGQGTQVTVSS”, the “polyreactivity (PSR sort gate)” value is recorded as “low polyreactivity”.

In the case of “QVQLVDSGGGLVQAGGSLRLSCAASGLIFDSYDMGWYRQEPGKERELVSPIRRNGGSTYYADSVKGRFTISRDNAMYTVYLQMNSLKPEDTAVYYCAVDNSGYCGVYWVKMDYWGQGSQVTVSS”, the “polyreactivity (PSR sort gate)” value is given as “low polyreactivity”.

Regarding “QVQLVESGGGLVQAGGSLRLSCAASGFTLVKYVMGWYRQAPGKERELVAAINRSGTSTYYADSVKGRFTISRDNAKNTVYLQMNCLKPDDTAVYYCAADRSRNFDWGQGTQVTVSS”, the “polyreactivity (PSR sort gate)” value is reported as “high polyreactivity”.

As to “QVQLVESGGGLVQARGTRRLSSAACGRTFGSYAMGWYRQAPGKERELVAAISRSDGSTYYADSVKGRFSISRDNEKNTVYFQMNSLKPEDTAVYYCAAKRWYVSYDYDYWGQGTQVTVSS”, the “polyreactivity (PSR sort gate)” value is “high polyreactivity”.

On to “QVQLVESGGGLVQAGGSLRLSCAASGGTFVANTMGWYRQAPGKERELVAAITWSGGRTYYADSVKGRFTISRDNAKNTVYLQMNSLKPEDTAVYYCNADYYRKAESSPEGYDYWGQGTQVTVSS”, for which the “polyreactivity (PSR sort gate)” value is listed as “high polyreactivity”.

With “QVQLVESGGGIGQAGGSLRLSCAASGFTFSRYTMAWFRRAPGKERELVAAINRRGGSTYYADSVKGRFTISRDNAKNTVYLQMNCEKPEDTAVYYCAATYTVRSGNGIANDYWGQGTQVTVSS”, the “polyreactivity (PSR sort gate)” value is reported as “high polyreactivity”.

Turning to “QVQLVESGGGLVQAGGSLRLSCAASGYIFSGYARGWYRKAPGKERELVAAISSNGGSTYYADSVKGRFTISRDNANNTVYVQMNSLKPEDTAVYYCNRGLAARVGRGDYWGQGTQVTVSS”, the “polyreactivity (PSR sort gate)” value is “low polyreactivity”.

Take “QVQLVESGGGLVQAGGSLRLSCAASGIILQSYTMGWYRQAPGKERELVAALTKSGGRTYYADSVKGRFTISRDNAKNTVYLQMNSLKPEDTAVYYCAAPLSYSYDYSGQGTQVTVSS”: the “polyreactivity (PSR sort gate)” value is recorded as “high polyreactivity”.

For the sequence “QVQLEESGGGLVQAGGSLRLSCAASGRTFVYNAMGWYRQAPGKERELVAAITSGGRTYYADSVKGRFTISRDNAKNTVYLQMNSLKPEDTAVYYCAADHRGEYDYWGQGTQVTVSS”, the “polyreactivity (PSR sort gate)” value is given as “low polyreactivity”.

As to “QVQRVESCGGLVQAGGSLRLSCAASGSIFTQYTMGWYRQEPAKERELVAAISRSGGRTYYADSVKGRFTISRDNAKNTVYLQMNSLKPEDTAVYYCATRALYWRYGYDYWGQGTQVTVSS”, the “polyreactivity (PSR sort gate)” value is reported as “high polyreactivity”.

For “QVQLVESGGGLVQAGGSLRLSCAASGSTFSSNAMGWYRQAPGKERELVAAIDRGGSTYYADSVKGRFTISRDNAKNTVYLQMNSLKPEDTAVYYCAKGFDFRRRYDYWGQGTQVTVSS”, the “polyreactivity (PSR sort gate)” value is on record as “low polyreactivity”.

Take “QVQRLESGGGLVKAGGSLRLSCSASGIILPYYVMGWYRQAPGKEREFVADITWSGGSTYYADSVKGRFTISRDNAKNTVYLQMNSLKPEDTAVYYCAAEGPWYYFFDMDYWGQGTQVTVSS”: the “polyreactivity (PSR sort gate)” value is “high polyreactivity”.

With “QVQLVESGGGLVQAGGSLRLSCAASGSIFANAMGWYRQAHGKERELVAAISFSGGRTFYADSVKGRFTISRDNAKNTVYLQMNSLKPEDTAVYYCAKGKISSRSGIYNYWGQGTQVTVSS”, the “polyreactivity (PSR sort gate)” value is “high polyreactivity”.

Regarding “QVQLVESWGGLVQAGGSLRLSCAASGHTFREKAMGWYRQAPGKERELLAAITSSGRTYYADSVKGRFTISRDNAKNTVYLQMNRQKPEDTAVYYCAADYWYVYPRYNPGDYWGQGSQVTVSS”, the “polyreactivity (PSR sort gate)” value was “high polyreactivity”.

Take “QVQLVESGGGLVQAGGSLRLSCAASGFIFAYNAMGWYRQAPGKERELVAAISSRGSRTYYADSVKGRFTISRDKAKNTVYLQMNSLKPEDTAVYYCAARYSRGGFGYWGQGTQVTVSS”: the “polyreactivity (PSR sort gate)” value was “high polyreactivity”.

Take “QVQLVESGGGLVQAGGSLRLSCAASGRTFSLYAMGWYRQAPGKERELVARIRSSTRTTYADSVKGRFTISRDNAKNTVYLQMNSLKPEDTAVYYCAADSGYRYYTKSVGYDYWGQGTQVTVSS”: the “polyreactivity (PSR sort gate)” value is recorded as “high polyreactivity”.

For “QVQLVESGGGLVHAGGSLSLSCAASGYTFPLYAMGRYRQAPGKERELVADNNIGGASTYYADSVKGRFTISRDNAKNTVYLQMNSLKPEDTAVYYCAKEDYDGYFPTFDYDYWGQGTQVTVSS”, the “polyreactivity (PSR sort gate)” value is given as “low polyreactivity”.

With “QVQLVESGGGLVQAGGSLRLSCAASGSTFWYYAMAWYRHAPGKEREMVAAINSDDSTNYADSVKGRFTISRDNAKNTDYLQMNSLKPEDTAVYDCHRGFVYSTTGLWRYYDFDYWGQGTQVTLSS”, the “polyreactivity (PSR sort gate)” value is on record as “low polyreactivity”.

In the case of “QIQLEESGGGLVQAGGSLRLSCAASGSIFSVYAMGWYRQAPGKERELVATISTGGSTYYADSVKGRFTISRDNAKNTVYLQMNSLKPEDTAVYYCNAQFTPRYWGGYDSWGQGTQVTVSS”, the “polyreactivity (PSR sort gate)” value was “low polyreactivity”.

For “QVQLVESGGGLVQAGGSLRLSCAASGRIFNKNAMGWYRQAPGKERELVAAISWSGTSTYYADSVKGRFTISRDTAKNTVYLQMHSLKPEDTAVYYCAAADFYYTGADDYWGQGTQVTVSS”, the “polyreactivity (PSR sort gate)” value is on record as “high polyreactivity”.

In the case of “QVQLVESWGGLVQAGGSLRLSCAASGLIFNYYAMGWYRQAPGKERELVAAITTGGGTYYADSVKGRFTISRDNAKNTVYLQMNSLKPEDTAVYYCAAVWGNRSRYPGHYYWGQGTQVTVSS”, the “polyreactivity (PSR sort gate)” value is recorded as “high polyreactivity”.

For “QVQLVESGGVLVQAGGSLRLSCAAYGSTLRRYAMGWYRQAPGKERELVAAISYSGGSTYYADSVKGRFTISRDNAKNTVYLQMNSLKPEDTAVYYCAVVTRKGLYDYWGQGTQVTVSS”, the “polyreactivity (PSR sort gate)” value is “high polyreactivity”.

Consider “QVQLVESGGGLVQAGGSLRLSCAASGSIFGYNVMGWYRQAPGKEWELVAAITYSGGSTYYADSVKGRFTISRDNAKNTVYLQMNSLKPEDTAVFYCNAVTLRRIYSNPEYDSWGQGTQVSVSS”, for which the “polyreactivity (PSR sort gate)” value is given as “high polyreactivity”.

Regarding “PVQLVESGGGLVQAGGSLRLSCAASGSIFGYYAMGWYRQAPGKERELVAAITWSGDSTYYADSVKGRFTISRDNAKNTVYLQMNSLKPEDTAVYYCAARQFVHTRYFSFGYWGQGTQVTVSS”, the “polyreactivity (PSR sort gate)” value was “low polyreactivity”.

As for “QVQIVESGGGLVQAGGSLRLSCAASGGTFLPYAMGSYRQAPGKERELVATITLIGDSTYYADSVKGRFTISRDNAKNTVYLQMNSLKPEDTAVYYCAARPVTSYAYGSWGQGSQVTVSS”, the “polyreactivity (PSR sort gate)” value is listed as “low polyreactivity”.

For “QVQLVESGGGLVQAGGSLRLSCAASGLTFMYYAMGWYRQAPGKERELVAAISKGGGSTYYADSVKGRFTISRDNAKNTVYLQMNSLKPEDTAVYYCNADKVTRVTYWDDSWGLGTQVTVSS”, the “polyreactivity (PSR sort gate)” value was “high polyreactivity”.

For the sequence “QVQLVESGGGLVQAGGSLRLSCAASGSISGYYAMGWYRQAPGKERELVASIRYTGARTYYADSVKGRFTISRDNAKNTVYLQMNSLKPEDTAVYYCAADFKRDRVWGGDYWGQGTQVTVSS”, the “polyreactivity (PSR sort gate)” value was “low polyreactivity”.
